Laboratory results published in article PMC8766471, “Mutations affecting the N-terminal domains of SHANK3 point to different pathomechanisms in neurodevelopmental disorders” (Scientific Reports, 2022).

B1: Shank3 Ank repeats (residues 99-348), WT, recombinant (domain or fragment, rat, UniProt Q9JLU4 99-348, looked up)
chain: QNLIDDKQFAKLHTKANLKKFMDYVQLHSTDKVARLLDKGLDPNFHDPDSGECPLSLAAQLDNATDLLKVLRNGGAHLDFRTRDGLTAVHCATRQRNAGALTTLLDLGASPDYKDSRGLTPLYHSALGGGDALCCELLLHDHAQLGTTDENGWQEIHQACRFGHVQHLEHLLFYGANMGAQNASGNTALHICALYNQESCARVLLFRGANKDVRNYNSQTAFQVAIIAGNFELAEVIKTHKDSDVVPFRE
notes: Shank3, rat, Ank repeats, residues 99-348; expressed from pET-SUMO; also called WT Ank; WT Ank domain; source: E. coli BL21*(DE3), purified (HisTrap HP, SUMO protease, reverse HisTrap pass)
B2: isolated SPN domain of Shank3, recombinant (domain or fragment, rat, UniProt Q9JLU4 1-92, looked up)
chain: MDGPGASAVVVRVGIPDLQQTKCLRLDPTAPVWAAKQRVLCALNHSLQDALNYGLFQPPSRGRAGKFLDEERLLQDYPPNLDTPLPYLEFRY
notes: Shank3 SPN domain, isolated; the methods of expression list only residues 1-348 and 99-348; also called WT SPN

Columns and labels:
[1] = target: B2; assay: ITC; 25 °C; 20 mM Tris pH 7.5, 1 M NaCl, 0.5 mM TCEP; 25 µM SPN in the cell, 400 µM WT Ank or P141A Ank in the syringe; single-site-binding model; conditions: both partners purified
[2] = target: B1; assay: as above; conditions: both partners purified

| Binder | dH [1] [kcal/mol] | Kd [2] [µM] |
| --- | --- | --- |
| B1 | -3.7 |  |
| B2 |  | 19 |
